According to patent publication EP4682169A1 (Gracell Biotechnologies (Shanghai) Co., Ltd., dated 2026):
Values joined by “and” are separate entries in the source; they are usually repeats but may differ in a detail not shown here. Identical values can stand only once.

Experiments:
[1] = target: T1, human Claudin18.2 expressed on cells (human, UniProt P56856-2 1-261); assay: phage flow cytometry, phage supernatant, PE anti-M13
T1 construct: whole, on cells; also called CLDN18.2

Claudin 18.2 VLP [2] = target: T2, Claudin 18.2 VLP (UniProt P56856 1-261); assay: ELISA, coated antigen 200 ng/well
T2 construct: Antigen coated on ELISA plates, 200 ng/well; source and construct not described; also called Claudin18.2-VLP protein; Claudin18.2 VLP antigen

[3] = target: T3, Claudin18.2 recombinant protein (His tag) (UniProt P56856-2 1-261, limits assumed); assay: ELISA, coated antigen 200 ng/well
T3 construct: also called Claudin18.2-his antigen; not shown: His tag

Claudin 18.2 VLP [4] = target: T2, Claudin 18.2 VLP; assay: ELISA, coated antigen 200 ng/well; antibody 0.37 ug/mL
[5] = target: T3, Claudin18.2 recombinant protein (His …); assay: as above
Claudin 18.2 VLP [6] = target: T2, Claudin 18.2 VLP; assay: ELISA, coated antigen 200 ng/well; antibody 0.014 ug/mL
[7] = target: T3, Claudin18.2 recombinant protein (His …); assay: as above
Claudin 18.2 VLP [8] = target: T2, Claudin 18.2 VLP; assay: ELISA, coated antigen 200 ng/well; antibody 0.041 ug/mL
[9] = target: T3, Claudin18.2 recombinant protein (His …); assay: as above
Claudin 18.2 VLP [10] = target: T2, Claudin 18.2 VLP; assay: ELISA, coated antigen 200 ng/well; antibody 0.123 ug/mL
[11] = target: T3, Claudin18.2 recombinant protein (His …); assay: as above
Claudin 18.2 VLP [12] = target: T2, Claudin 18.2 VLP; assay: ELISA, coated antigen 200 ng/well; antibody 1.111 ug/mL
[13] = target: T3, Claudin18.2 recombinant protein (His …); assay: as above
Claudin 18.2 VLP [14] = target: T2, Claudin 18.2 VLP; assay: ELISA, coated antigen 200 ng/well; antibody 3.333 ug/mL
[15] = target: T3, Claudin18.2 recombinant protein (His …); assay: as above
Claudin 18.2 VLP [16] = target: T2, Claudin 18.2 VLP; assay: ELISA, coated antigen 200 ng/well; antibody 100 ug/mL (so in the source)
[17] = target: T3, Claudin18.2 recombinant protein (His …); assay: as above
Claudin 18.2 VLP [18] = target: T2, Claudin 18.2 VLP; assay: ELISA, coated antigen 200 ng/well; antibody 0 ug/mL (blank well, background)
[19] = target: T3, Claudin18.2 recombinant protein (His …); assay: as above
Claudin 18.2 VLP [20] = target: T2, Claudin 18.2 VLP; assay: ELISA, coated antigen; lower end, tied by Table 3 to 10-hIgG1Fc on the VLP (4.96 nM)
[21] = target: T1, human Claudin18.2 expressed on cells; assay: flow cytometry on 293FT CLDN18.2-Luc cells, APC anti-mouse IgG Fc
[22] = target: T4, Human Claudin-18.2 protein (human, UniProt P56856-2 1-261, limits assumed); assay: SPR (Biacore 8K), antibody captured on Protein A, Claudin-18.2 protein as analyte
T4 construct: Soluble analyte injected over captured antibodies in SPR

[23] = target: T3, Claudin18.2 recombinant protein (His …); assay: ELISA, coated antigen; upper end, tied by Table 3 to 1-hIgG1Fc on Claudin 18.2-his (196 nM)

B1: VHH clone 11 (phage-displayed) (VHH)
VHH: QVQLVESGGGLVQPGGSLRLSCAASGNILSINYMGWYRQAPGKERELVAIITRGGSTTYAPSLKGRFTISGDNAKDTVYLQMNSLQPEDTAVYYCNFRINFGILGGLRDYWGQGTQVTVSS
notes: Tested as phage supernatant, detected with PE anti-M13; also called Clone ID 11
[1]
  binding result: binds

B2: 10-hIgG1Fc (Fc fusion)
chain: QVQLAESGGGLVQPGGSLRLSCAASGNILSINYMGWYRQAPGKERELVATITRGGTTNYQGDLKGRFIISGDNTKDTVYLQMNNLQPEDTAVYYCYFRINFGILGGLRDYWGQGTQVTVSS
notes: VHH-hIgG1Fc recombinant antibody; also called 10-hlgG1Fc; VHH-hIgG1Fc recombinant antibody of clone 10; not shown: human IgG1 Fc (hIgG1Fc)
Claudin 18.2 VLP [2]
  EC50: 0.4 µg/mL and 4.96 nM
[3]
  EC50: 4 µg/mL and 50 nM
Claudin 18.2 VLP [4]
  absorbance at 450 nm: 1.46
[5]
  absorbance at 450 nm: 0.476
Claudin 18.2 VLP [6]
  absorbance at 450 nm: 0.329
[7]
  absorbance at 450 nm: 0.063
Claudin 18.2 VLP [8]
  absorbance at 450 nm: 0.355
[9]
  absorbance at 450 nm: 0.084
Claudin 18.2 VLP [10]
  absorbance at 450 nm: 0.568
[11]
  absorbance at 450 nm: 0.172
Claudin 18.2 VLP [12]
  absorbance at 450 nm: 2.14
[13]
  absorbance at 450 nm: 1.06
Claudin 18.2 VLP [14]
  absorbance at 450 nm: 2.51
[15]
  absorbance at 450 nm: 2.15
Claudin 18.2 VLP [16]
  absorbance at 450 nm: 2.62
[17]
  absorbance at 450 nm: 3.38
Claudin 18.2 VLP [18]
  absorbance at 450 nm: 0.311
[19]
  absorbance at 450 nm: 0.054
Claudin 18.2 VLP [20]
  EC50: 4 nM

B3: 2-mIgG2aFc (Fc fusion)
chain: EVQLVESGGGLVQPGGSLRLSCAASGNILSINYMGWYRQAPGKERELVATITRGGSTNYQGNLKGRFIISGDNTKDTVYLQMNNLQPEDTAVYYCYFRINFGILGGLRDYWGQGTQVTVSS
notes: Fusion antibody anti-Claudin18.2 VHH-mIgG2aFc; also called 2-mIgG Fc; 2-mlgG2a Fc; not shown: mouse IgG2a Fc (mIgG2aFc)
[21]
  EC50: 0.02 nM
[22]
  Kd: 1.1 nM
  koff: 0.00052 s⁻¹
  kon: 471000 M⁻¹ s⁻¹

B4: 5-mIgG2aFc (Fc fusion)
chain: QVQLVESGGGLVQTGGSLRLSCAASDSTFSSYIMGWFRQAPGKEREFVAGITWSGGIKDYADSVKGRFTIARDNAKNTVYLQMNSLKPEDAAIYYCAANAIQLTRRSGDYAYWGQGTQVTVSS
notes: Fusion antibody anti-Claudin18.2 VHH-mIgG2aFc; also called 5-mIgG Fc; 5-mlgG2a Fc; not shown: mouse IgG2a Fc (mIgG2aFc)
[21]
  EC50: 0.013 nM
[22]
  Kd: 3.02 nM
  koff: 0.000373 s⁻¹
  kon: 123000 M⁻¹ s⁻¹

B5: 5H1-mIgG Fc (Fc fusion)
chain: QVQLVESGGGLVQTGGSLRLSCAASDSTFSSYIMGWVRQAPGKGLEWVAGITWSGGIKDYADSVKGRFTIARDNAKNTVYLQMNSLKPEDAAIYYCAANAIQLTRRSGDYAYWGQGTQVTVSS
notes: Subclass printed only as mIgG Fc for this one; also called 5H1-mlgG Fc; H1-mlgG Fc; not shown: mouse IgG Fc (printed mIgG Fc)
[22]
  Kd: 7.21 nM
  koff: 0.000552 s⁻¹
  kon: 76600 M⁻¹ s⁻¹

B6: 5H2-mIgG2a Fc (Fc fusion)
chain: QVQLVESGGGLVQPGGSLRLSCAASDSTFSSYIMGWFRQAPGKGLEFVAGITWSGGIKDYADSVKGRFTIARDNSKNTLYLQMNSLRAEDAAVYYCAANAIQLTRRSGDYAYWGQGTLVTVSS
notes: also called 5H2-mIgG Fc; 5H2-mlgG2a Fc; not shown: mouse IgG2a Fc
[22]
  Kd: 3.32 nM
  koff: 0.000417 s⁻¹
  kon: 126000 M⁻¹ s⁻¹

B7: 18-mIgG2aFc (Fc fusion)
chain: QVQLVESGGGLVQPGGSLRLSCAASGSILNLMTTGWYRQAPGKQRDLVATITFGGTTNYADAVKGRFTISRDNAKNTVYLQMNNLEPEDTAVYFCYLDYIFGFGDRRVAWDQGTQVTVSS
notes: Fusion antibody anti-Claudin18.2 VHH-mIgG2aFc; not shown: mouse IgG2a Fc (mIgG2aFc)
[21]
  EC50: 0.06 nM

B8: VHH clone 14 (phage-displayed) (VHH)
VHH: EVQLVESGGGLVQPGGSLRLSCAASGSLFSIITMGWYRQAPGKQRELVATVTRGGRLNYGDSVKGRFTISSGNVENTLDLQMNNLKPEDTAVYYCNAILESGNFWGRGTQVTVSS
notes: Tested as phage supernatant, detected with PE anti-M13; also called Clone ID 14
[1]
  binding result: binds

B9: 1-hIgG1Fc (Fc fusion)
chain: EVQLVGSGGGLVQPGGSLRLSCAASGSILNLMTTGWYRQAPGKQRDLVATITFGGTTNYADSVKGRFTISRDKSKNTAYLQMDNLKPEDTAVYFCYADVIVGFQDRRVAWDAGTQVTVSS
notes: VHH-hIgG1Fc recombinant antibody; also called 1-hlgG1Fc; VHH-hIgG1Fc recombinant antibody of clone 1; not shown: human IgG1 Fc (hIgG1Fc)
Claudin 18.2 VLP [2]
  EC50: 1.46 µg/mL and 18.3 nM
[3]
  EC50: 15.7 µg/mL and 196 nM
Claudin 18.2 VLP [4]
  absorbance at 450 nm: 0.585
[5]
  absorbance at 450 nm: 0.216
Claudin 18.2 VLP [6]
  absorbance at 450 nm: 0.282
[7]
  absorbance at 450 nm: 0.066
Claudin 18.2 VLP [8]
  absorbance at 450 nm: 0.271
[9]
  absorbance at 450 nm: 0.07
Claudin 18.2 VLP [10]
  absorbance at 450 nm: 0.293
[11]
  absorbance at 450 nm: 0.1
Claudin 18.2 VLP [12]
  absorbance at 450 nm: 1.35
[13]
  absorbance at 450 nm: 0.473
Claudin 18.2 VLP [14]
  absorbance at 450 nm: 2.13
[15]
  absorbance at 450 nm: 1.08
Claudin 18.2 VLP [16]
  absorbance at 450 nm: 2.66
[17]
  absorbance at 450 nm: 2.36
Claudin 18.2 VLP [18]
  absorbance at 450 nm: 0.275
[19]
  absorbance at 450 nm: 0.06
[23]
  EC50: 200 nM

B10: 5-hIgG1Fc (Fc fusion)
chain: QVQLVESGGGLVQTGGSLRLSCAASDSTFSSYIMGWFRQAPGKEREFVAGITWSGGIKDYADSVKGRFTIARDNAKNTVYLQMNSLKPEDAAIYYCAANAIQLTRRSGDYAYWGQGTQVTVSS
notes: VHH-hIgG1Fc recombinant antibody; also called 5-hlgG1Fc; VHH-hIgG1Fc recombinant antibody of clone 5; not shown: human IgG1 Fc (hIgG1Fc)
Claudin 18.2 VLP [2]
  EC50: 0.55 µg/mL and 6.87 nM
[3]
  EC50: 0.81 µg/mL and 10.1 nM
Claudin 18.2 VLP [4]
  absorbance at 450 nm: 0.942
[5]
  absorbance at 450 nm: 1.41
Claudin 18.2 VLP [6]
  absorbance at 450 nm: 0.274
[7]
  absorbance at 450 nm: 0.108
Claudin 18.2 VLP [8]
  absorbance at 450 nm: 0.275
[9]
  absorbance at 450 nm: 0.207
Claudin 18.2 VLP [10]
  absorbance at 450 nm: 0.39
[11]
  absorbance at 450 nm: 0.463
Claudin 18.2 VLP [12]
  absorbance at 450 nm: 1.86
[13]
  absorbance at 450 nm: 2.53
Claudin 18.2 VLP [14]
  absorbance at 450 nm: 2.14
[15]
  absorbance at 450 nm: 3.5
Claudin 18.2 VLP [16]
  absorbance at 450 nm: 2.35
Claudin 18.2 VLP [18]
  absorbance at 450 nm: 0.247
[19]
  absorbance at 450 nm: 0.057

B11: 8-hIgG1Fc (Fc fusion)
chain: QVQLVESGGGLVQPGGSLRLSCAASGSIFGLNFMGWWRQAPGSQRELVAIATSGGSIQYGDSVKGRFTISRDNAKNTVYLQMASLKPEDTAVYYCNVHTYDFLGRDYWGQGTQVTVSL
notes: VHH-hIgG1Fc recombinant antibody; also called 8-hlgG1 Fc; VHH-hIgG1Fc recombinant antibody of clone 8; not shown: human IgG1 Fc (hIgG1Fc)
Claudin 18.2 VLP [2]
  EC50: 0.61 µg/mL and 7.66 nM
Claudin 18.2 VLP [4]
  absorbance at 450 nm: 0.931
Claudin 18.2 VLP [6]
  absorbance at 450 nm: 0.326
Claudin 18.2 VLP [8]
  absorbance at 450 nm: 0.337
Claudin 18.2 VLP [10]
  absorbance at 450 nm: 0.474
Claudin 18.2 VLP [12]
  absorbance at 450 nm: 1.87
Claudin 18.2 VLP [14]
  absorbance at 450 nm: 2.1
Claudin 18.2 VLP [16]
  absorbance at 450 nm: 2.46
Claudin 18.2 VLP [18]
  absorbance at 450 nm: 0.289

B12: VHH clone 3 (phage-displayed) (VHH)
VHH: QVQLVESGGGLVQAGDSVRLSCAASGQTLSNYNVAWFRQAPGKEREFVAGATWSGRITNYSDSVRGRFTISRDNAKNTVYLQMNSLGPGDTAVYHCAANSFQLGDKPGDYHYWGQGTQVTVSS
notes: Tested as phage supernatant, detected with PE anti-M13; also called Clone ID 3
[1]
  binding result: binds

B13: VHH clone 4 (phage-displayed) (VHH)
VHH: EVQLVESGGGLVQPGGSLRLSCAASGQFFSLNYLAWYRQAPGSQRELIALVSSGGSTQYGDSVKGRFTISRDNAKNTVYLQMASLKPEDTAVYYCNLHTYDFLGRDYWGQGTQVTISS
notes: Tested as phage supernatant, detected with PE anti-M13; also called Clone ID 4
[1]
  binding result: binds

B14: VHH clone 9 (phage-displayed) (VHH)
VHH: EVQLVESGGGLVQPGGSLRLSCAASGSIFGLNFMGWWRQAPGSQRELVAIATSGGSIQYGDSVKGRFTISRDNAKNTVYLQMANLKPEDTAVYYCNVHTYDFLGRDYWGQGTQVTVSL
notes: Tested as phage supernatant, detected with PE anti-M13; also called Clone ID 9
[1]
  binding result: binds
